Laboratory results reported in PMC3335088 (PLoS ONE, 2012).

Key:
Conditions in all cases: partners not purified
[1] = target: T1, MCM4 with 6-His tag in combination with a StrepII tag (UniProt P33991 1-863); assay: pull-down; co-expression in High Five insect cells; lysis in 50-100 mM Tris-HCl pH 8.0, 150 mM NaCl, 5% glycerol, 0.5% Triton X-100; tagged protein recovered on Ni-NTA, anti-FLAG M2, anti-HA or StrepT-actin resin, 1 hr at 4°C; washes with 300 mM NaCl; Coomassie staining and Western blot
T1 construct: MCM4; The methods describe one MCM4 baculovirus with both tags; also called Strep-MCM4; Strep-tagged MCM4; source: High Five insect cells, baculovirus, in lysate
T1 sequence (looked up): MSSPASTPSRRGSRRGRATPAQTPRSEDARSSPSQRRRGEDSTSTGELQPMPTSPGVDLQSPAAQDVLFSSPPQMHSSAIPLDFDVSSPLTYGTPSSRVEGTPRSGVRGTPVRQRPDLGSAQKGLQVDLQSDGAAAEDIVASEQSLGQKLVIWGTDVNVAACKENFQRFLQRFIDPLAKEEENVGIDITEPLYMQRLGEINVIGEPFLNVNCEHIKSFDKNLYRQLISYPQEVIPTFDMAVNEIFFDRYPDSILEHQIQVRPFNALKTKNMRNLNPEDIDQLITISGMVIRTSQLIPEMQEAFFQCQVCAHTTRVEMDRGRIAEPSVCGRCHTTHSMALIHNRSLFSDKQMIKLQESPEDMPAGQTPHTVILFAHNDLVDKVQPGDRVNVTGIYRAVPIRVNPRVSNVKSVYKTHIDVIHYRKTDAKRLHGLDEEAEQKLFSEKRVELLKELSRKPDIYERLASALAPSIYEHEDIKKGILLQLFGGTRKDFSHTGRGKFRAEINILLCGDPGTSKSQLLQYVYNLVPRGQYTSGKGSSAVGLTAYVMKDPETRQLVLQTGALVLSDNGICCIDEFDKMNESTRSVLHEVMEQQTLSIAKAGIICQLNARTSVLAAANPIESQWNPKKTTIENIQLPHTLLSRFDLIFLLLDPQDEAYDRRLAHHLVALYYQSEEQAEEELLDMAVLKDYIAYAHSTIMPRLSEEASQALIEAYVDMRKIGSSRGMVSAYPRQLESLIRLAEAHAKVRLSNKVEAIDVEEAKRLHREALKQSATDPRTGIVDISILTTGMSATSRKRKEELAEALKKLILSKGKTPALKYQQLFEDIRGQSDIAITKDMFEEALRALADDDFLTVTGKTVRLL

[2] = target: T2, MCM5 with 6-His tag in combination with a triple FLAG tag (UniProt P33992 1-734); assay: as above
T2 construct: MCM5; also called FLAG-MCM5; 6-His-tagged MCM5; source: High Five insect cells, baculovirus, in lysate; not shown: His6, N-terminal, kept; triple FLAG, N-terminal, kept
T2 sequence (looked up): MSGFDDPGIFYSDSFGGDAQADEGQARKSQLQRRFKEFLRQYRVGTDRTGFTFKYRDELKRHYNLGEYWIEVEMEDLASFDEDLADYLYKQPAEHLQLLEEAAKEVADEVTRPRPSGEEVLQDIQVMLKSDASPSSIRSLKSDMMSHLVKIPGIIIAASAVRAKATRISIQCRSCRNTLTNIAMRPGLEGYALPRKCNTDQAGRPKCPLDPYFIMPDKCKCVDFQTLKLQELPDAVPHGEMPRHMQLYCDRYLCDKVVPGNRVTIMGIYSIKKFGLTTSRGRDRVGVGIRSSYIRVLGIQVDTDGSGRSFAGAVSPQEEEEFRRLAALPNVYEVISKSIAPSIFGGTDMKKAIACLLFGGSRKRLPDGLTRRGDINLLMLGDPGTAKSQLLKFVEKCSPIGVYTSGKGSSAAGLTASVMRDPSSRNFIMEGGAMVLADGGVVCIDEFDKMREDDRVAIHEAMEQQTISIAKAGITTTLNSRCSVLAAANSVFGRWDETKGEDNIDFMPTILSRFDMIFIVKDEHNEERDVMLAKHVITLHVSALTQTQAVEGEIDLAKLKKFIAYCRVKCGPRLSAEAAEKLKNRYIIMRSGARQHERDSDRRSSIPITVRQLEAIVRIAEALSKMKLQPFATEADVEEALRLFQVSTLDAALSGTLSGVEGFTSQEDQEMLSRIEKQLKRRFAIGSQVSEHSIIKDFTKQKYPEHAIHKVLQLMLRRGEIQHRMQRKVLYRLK

[3] = target: T3, MCM6 with 6-His tag in combination with a HA tag (human, UniProt Q14566 1-821); assay: as above
T3 construct: MCM6; also called HA-MCM6; 6-His-tagged MCM6; source: High Five insect cells, baculovirus, in lysate
T3 sequence (looked up): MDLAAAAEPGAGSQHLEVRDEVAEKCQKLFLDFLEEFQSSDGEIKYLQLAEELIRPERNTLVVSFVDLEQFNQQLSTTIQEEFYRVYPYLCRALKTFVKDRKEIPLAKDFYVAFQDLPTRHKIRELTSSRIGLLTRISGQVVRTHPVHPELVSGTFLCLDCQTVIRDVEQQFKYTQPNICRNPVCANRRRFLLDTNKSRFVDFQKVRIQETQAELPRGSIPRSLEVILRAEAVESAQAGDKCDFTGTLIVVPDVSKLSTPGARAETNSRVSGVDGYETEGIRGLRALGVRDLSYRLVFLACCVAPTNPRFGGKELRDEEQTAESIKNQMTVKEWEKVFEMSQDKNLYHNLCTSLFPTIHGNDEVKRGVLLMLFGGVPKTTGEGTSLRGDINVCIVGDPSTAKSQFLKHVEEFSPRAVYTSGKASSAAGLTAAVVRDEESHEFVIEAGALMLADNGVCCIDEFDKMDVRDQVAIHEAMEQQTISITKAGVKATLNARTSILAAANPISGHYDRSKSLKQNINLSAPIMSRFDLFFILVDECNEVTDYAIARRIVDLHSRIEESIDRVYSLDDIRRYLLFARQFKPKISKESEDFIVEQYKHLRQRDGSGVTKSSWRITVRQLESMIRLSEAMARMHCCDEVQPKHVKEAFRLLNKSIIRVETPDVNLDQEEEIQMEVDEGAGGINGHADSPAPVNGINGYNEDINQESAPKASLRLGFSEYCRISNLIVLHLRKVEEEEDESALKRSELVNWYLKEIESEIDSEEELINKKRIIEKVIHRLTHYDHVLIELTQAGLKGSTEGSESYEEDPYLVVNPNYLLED

untagged MCM3 = target: T4, untagged MCM3 (UniProt P25205 1-808); assay: pull-down; co-expression in High Five insect cells; NaCl of the clarified lysate raised from 0.15 M up to 0.75 M, or deoxycholate added to 0.1 or 0.5% (with 150 mM NaCl), before incubation with Strep-T actin, anti-FLAG or nickel resin; Coomassie staining
T4 construct: MCM3, untagged; construct not described in the methods; also called MCM3 (no tag); source: High Five insect cells, baculovirus, in lysate; co-isolated with His-MCM-BP for the gradient
T4 sequence (looked up): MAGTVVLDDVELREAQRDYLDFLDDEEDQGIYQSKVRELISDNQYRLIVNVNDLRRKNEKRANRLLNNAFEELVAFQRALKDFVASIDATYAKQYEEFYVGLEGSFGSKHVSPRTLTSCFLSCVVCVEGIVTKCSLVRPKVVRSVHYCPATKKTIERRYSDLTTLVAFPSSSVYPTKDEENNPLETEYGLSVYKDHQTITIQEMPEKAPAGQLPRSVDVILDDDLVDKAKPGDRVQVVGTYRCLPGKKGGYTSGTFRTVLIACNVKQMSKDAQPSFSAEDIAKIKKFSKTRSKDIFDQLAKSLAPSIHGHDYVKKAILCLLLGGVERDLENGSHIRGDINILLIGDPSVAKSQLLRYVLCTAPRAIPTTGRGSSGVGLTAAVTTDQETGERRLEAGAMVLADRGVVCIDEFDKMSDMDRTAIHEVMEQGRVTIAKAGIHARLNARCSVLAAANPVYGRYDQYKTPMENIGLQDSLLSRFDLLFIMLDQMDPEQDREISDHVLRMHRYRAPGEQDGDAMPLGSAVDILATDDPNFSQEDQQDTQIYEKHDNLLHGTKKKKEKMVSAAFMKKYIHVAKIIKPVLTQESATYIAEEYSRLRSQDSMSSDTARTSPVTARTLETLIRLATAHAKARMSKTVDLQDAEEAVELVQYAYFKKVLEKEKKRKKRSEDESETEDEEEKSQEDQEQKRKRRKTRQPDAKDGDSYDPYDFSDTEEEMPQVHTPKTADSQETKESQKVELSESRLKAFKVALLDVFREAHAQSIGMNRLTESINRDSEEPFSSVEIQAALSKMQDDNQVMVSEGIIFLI

B1: MCM-BP with no tags (natural protein, human, UniProt Q9BTE3 1-642, looked up)
chain: MPCGEDWLSHPLGIVQGFFAQNGVNPDWEKKVIEYFKEKLKENNAPKWVPSLNEVPLHYLKPNSFVKFRCMIQDMFDPEFYMGVYETVNQNTKAHVLHFGKYRDVAECGPQQELDLNSPRNTTLERQTFYCVPVPGESTWVKEAYVNANQARVSPSTSYTPSRHKRSYEDDDDMDLQPNKQKDQHAGARQAGSVGGLQWCGEPKRLETEASTGQQLNSLNLSSPFDLNFPLPGEKGPACLVKVYEDWDCFKVNDILELYGILSVDPVLSILNNDERDASALLDPMECTDTAEEQRVHSPPASLVPRIHVILAQKLQHINPLLPACLNKEESKTCKFVSSFMSELSPVRAELLGFLTHALLGDSLAAEYLILHLISTVYTRRDVLPLGKFTVNLSGCPRNSTFTEHLYRIIQHLVPASFRLQMTIENMNHLKFIPHKDYTANRLVSGLLQLPSNTSLVIDETLLEQGQLDTPGVHNVTALSNLITWQKVDYDFSYHQMEFPCNINVFITSEGRSLLPADCQIHLQPQLIPPNMEEYMNSLLSAVLPSVLNKFRIYLTLLRFLEYSISDEITKAVEDDFVEMRKNDPQSITADDLHQLLVVARCLSLSAGQTTLSRERWLRAKQLESLRRTRLQQQKCVNGNEL
notes: MCM-BP, human; made from pfastBacHT.MCM-BP by excising the 6-His tag; also called untagged MCM-BP; nontagged MCM-BP; source: High Five insect cells, baculovirus, co-expressed, in lysate
B1: binds [1]; binds [2]; binds [3].

B2: His-tagged MCM-BP (natural protein, human, UniProt Q9BTE3 1-642, looked up)
chain: MPCGEDWLSHPLGIVQGFFAQNGVNPDWEKKVIEYFKEKLKENNAPKWVPSLNEVPLHYLKPNSFVKFRCMIQDMFDPEFYMGVYETVNQNTKAHVLHFGKYRDVAECGPQQELDLNSPRNTTLERQTFYCVPVPGESTWVKEAYVNANQARVSPSTSYTPSRHKRSYEDDDDMDLQPNKQKDQHAGARQAGSVGGLQWCGEPKRLETEASTGQQLNSLNLSSPFDLNFPLPGEKGPACLVKVYEDWDCFKVNDILELYGILSVDPVLSILNNDERDASALLDPMECTDTAEEQRVHSPPASLVPRIHVILAQKLQHINPLLPACLNKEESKTCKFVSSFMSELSPVRAELLGFLTHALLGDSLAAEYLILHLISTVYTRRDVLPLGKFTVNLSGCPRNSTFTEHLYRIIQHLVPASFRLQMTIENMNHLKFIPHKDYTANRLVSGLLQLPSNTSLVIDETLLEQGQLDTPGVHNVTALSNLITWQKVDYDFSYHQMEFPCNINVFITSEGRSLLPADCQIHLQPQLIPPNMEEYMNSLLSAVLPSVLNKFRIYLTLLRFLEYSISDEITKAVEDDFVEMRKNDPQSITADDLHQLLVVARCLSLSAGQTTLSRERWLRAKQLESLRRTRLQQQKCVNGNEL
notes: MCM-BP, human; pfastBacHT.MCM-BP; also called His-MCM-BP; His-BP; source: High Five insect cells, baculovirus; not shown: His6, N-terminal, kept
B2: binds (untagged MCM3).
